# Laboratory results taken from patent publication US12698507B2, “Methods and compositions for conferring and/or enhancing herbicide tolerance using protoporphyrinogen IX oxidase of various cyanobacteria or variant thereof” (FarmHannong Co., Ltd., priority 2019, dated 2026).
# B1: CyPPO19 I408W + F360I: variant of CyPPO19 PPO protein (SEQ ID NO: 1) (protein)
# chain: MSEVDVAIVGGGLSGLSLAWRLQQSAPQYSVVLLEASDRLGGNITTQTAEGFVWELGPNSFAPTPALLQLIAEVGLQSELIRGDRHLPRYIYWRGQLYPLQPTRPLALATSNLLSPWGKVRAALGALGFVPPYLGSGDESVNSFFRRHLGQEVAERLVAPFVSGVYAGDPQQLSAAAAFRRIAQLEKLGGGLIAGALHLRRQQAPKPKPPTSVQMRPGELGSFKEGLAALPRAIAQQLKAPIHLQTPVQEITPDPKGGYLLRSGEQTWRARSVVLATPAYQTAELVAPFQPAIARVLATIPYPTVACVVLAYPAGLGRSVRPGFGVLIPRSQGIRTLGTIWSSCLFPQRTPAGWQVFTSIIGGATDPDLASLSEEAIVQQVQQDLNRLLDLPAAKARLLGMKVWRRAWPQYMVGYPEQWQQVTHALSQTPGLFLCSNYAEGVALGDRVEHGNRTAAAVAAYLSGGQP
# modifications: Synthetic_PPO of Thermosynechococcus elongatus PKUAC-SCTE542 (comprising GenBank No. CP032152.1)
# B2: CyPPO19 I408R + F360M: variant of CyPPO19 PPO protein (SEQ ID NO: 1) (protein)
# chain: MSEVDVAIVGGGLSGLSLAWRLQQSAPQYSVVLLEASDRLGGNITTQTAEGFVWELGPNSFAPTPALLQLIAEVGLQSELIRGDRHLPRYIYWRGQLYPLQPTRPLALATSNLLSPWGKVRAALGALGFVPPYLGSGDESVNSFFRRHLGQEVAERLVAPFVSGVYAGDPQQLSAAAAFRRIAQLEKLGGGLIAGALHLRRQQAPKPKPPTSVQMRPGELGSFKEGLAALPRAIAQQLKAPIHLQTPVQEITPDPKGGYLLRSGEQTWRARSVVLATPAYQTAELVAPFQPAIARVLATIPYPTVACVVLAYPAGLGRSVRPGFGVLIPRSQGIRTLGTIWSSCLFPQRTPAGWQVFTSMIGGATDPDLASLSEEAIVQQVQQDLNRLLDLPAAKARLLGMKVWRRARPQYMVGYPEQWQQVTHALSQTPGLFLCSNYAEGVALGDRVEHGNRTAAAVAAYLSGGQP
# modifications: Synthetic_PPO of Thermosynechococcus elongatus PKUAC-SCTE542 (comprising GenBank No. CP032152.1)
# System: PPO-deficient BT3 E. coli (ΔPPO)
# Experiment: PPO-inhibiting herbicide tolerance test of PPO variants in E. coli (growth on herbicide-containing LB agar)
# Type: cell-based
# Conditions: CyPPO19 variants in BT3 (ΔPPO) E. coli; LB agar with 0 to 2,000 μM herbicide, 37° C., dark, 16-20 hours
# Method in brief: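 Tolerance was scored against wild-type enzyme: '−' for equal growth, one '+' per 10-fold gain, up to '+++++'. ΔPPO BT3 cells carrying variant plasmids, spotted as a 10-fold dilution series from OD600=0.5, grew 16-20 h at 37° C. in the dark on ampicillin LB agar containing 0 to 2,000 μM herbicide.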
Molecule,"tolerance level relative to wild type, Carfentrazone","tolerance level relative to wild type, Flumioxazin","tolerance level relative to wild type, Fomesafen","tolerance level relative to wild type, Oxyfluorfen","tolerance level relative to wild type, Saflufenacil","tolerance level relative to wild type, Sulfentrazone","tolerance level relative to wild type, Tiafenacil"
B1,+ (‘+’ per each 10-fold resistance),+++ (‘+’ per each 10-fold resistance),+++ (‘+’ per each 10-fold resistance),++ (‘+’ per each 10-fold resistance),+++ (‘+’ per each 10-fold resistance),+++ (‘+’ per each 10-fold resistance),++++ (‘+’ per each 10-fold resistance)
B2,+ (‘+’ per each 10-fold resistance),++ (‘+’ per each 10-fold resistance),+ (‘+’ per each 10-fold resistance),+ (‘+’ per each 10-fold resistance),++ (‘+’ per each 10-fold resistance),+ (‘+’ per each 10-fold resistance),+++ (‘+’ per each 10-fold resistance)
